Assay results: US20230183336A1 (MODMAB THERAPEUTICS, published 2023)

Target: T1, recombinant mouse LRP6-His chimera (mouse, UniProt O88572 20-1370)
T1 construct: extracellular domain; also called ECD of mouse LRP6; not shown: His tag
T1 sequence (looked up): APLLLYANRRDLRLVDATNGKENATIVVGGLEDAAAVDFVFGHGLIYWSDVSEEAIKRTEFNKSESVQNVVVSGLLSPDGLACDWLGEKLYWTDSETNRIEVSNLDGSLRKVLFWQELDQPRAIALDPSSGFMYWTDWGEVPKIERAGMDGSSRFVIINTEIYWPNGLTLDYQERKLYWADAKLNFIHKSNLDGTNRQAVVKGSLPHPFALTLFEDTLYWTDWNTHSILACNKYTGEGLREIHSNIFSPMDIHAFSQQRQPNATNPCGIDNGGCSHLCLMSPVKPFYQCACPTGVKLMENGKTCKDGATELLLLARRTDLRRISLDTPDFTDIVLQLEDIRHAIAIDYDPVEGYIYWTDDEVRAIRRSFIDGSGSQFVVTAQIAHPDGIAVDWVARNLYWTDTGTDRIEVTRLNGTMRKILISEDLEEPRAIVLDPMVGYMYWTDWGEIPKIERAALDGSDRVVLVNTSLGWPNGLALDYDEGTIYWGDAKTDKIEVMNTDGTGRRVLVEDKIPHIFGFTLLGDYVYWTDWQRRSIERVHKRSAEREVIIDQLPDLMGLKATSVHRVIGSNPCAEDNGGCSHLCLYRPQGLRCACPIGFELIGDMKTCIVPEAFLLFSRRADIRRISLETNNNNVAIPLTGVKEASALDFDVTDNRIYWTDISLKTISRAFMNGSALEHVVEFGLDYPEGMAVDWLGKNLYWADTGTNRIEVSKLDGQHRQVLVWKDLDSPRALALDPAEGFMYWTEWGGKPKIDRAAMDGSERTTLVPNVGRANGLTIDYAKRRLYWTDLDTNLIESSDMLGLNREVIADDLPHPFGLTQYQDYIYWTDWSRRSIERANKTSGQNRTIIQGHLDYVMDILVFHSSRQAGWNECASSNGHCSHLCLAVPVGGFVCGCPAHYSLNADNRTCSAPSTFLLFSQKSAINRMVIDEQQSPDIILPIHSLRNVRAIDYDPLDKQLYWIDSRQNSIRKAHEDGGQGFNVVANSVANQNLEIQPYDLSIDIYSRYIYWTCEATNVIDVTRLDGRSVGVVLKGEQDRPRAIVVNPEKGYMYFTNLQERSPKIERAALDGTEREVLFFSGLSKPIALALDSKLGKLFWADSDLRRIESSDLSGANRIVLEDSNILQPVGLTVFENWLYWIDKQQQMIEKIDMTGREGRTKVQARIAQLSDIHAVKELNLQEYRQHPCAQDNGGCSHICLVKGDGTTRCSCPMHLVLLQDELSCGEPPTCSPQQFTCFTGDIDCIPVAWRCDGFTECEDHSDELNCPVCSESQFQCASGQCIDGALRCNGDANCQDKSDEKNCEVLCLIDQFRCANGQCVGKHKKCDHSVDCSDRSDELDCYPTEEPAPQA
Assay: single-point ELISA, coated antigen, purified Fab or IgG1, anti-kappa-HRP

B1: LRP5-H5 (antibody, V domains shown)
VH: EVQLVESGGGLVQPGGSLRLSCAASGFNLSYSSIHWVRQAPGKGLEWVASISSSYGSTSYADSVKGRFTISADTSKNTAYLQMNSLRAEDTAVYYCARGYWAIDYWGQGTLVTVSS
VL: DIQMTQSPSSLSASVGDRVTITCRASQSVSSAVAWYQQKPGKAPKLLIYSASSLYSGVPSRFSGSRSGTDFTLTISSLQPEDFATYYCQQPVGHYGYPITFGQGTKVEIKR
notes: Fab-phage in the screen
B1: binds.
